Test results: patent US20240409645A1 (DUALYX, published 2024)
Numbering of substitutions follows the chain as printed.

T1: human common cytokine receptor γ-chain (IL-2Rγ) (human, UniProt P31785 23-262, limits assumed)
T1 construct: Recombinant human IL-2Rγ protein, coated (ELISA) or amine-coupled to a CM5 chip (SPR); also called hu IL-2R; CD132
T1 sequence: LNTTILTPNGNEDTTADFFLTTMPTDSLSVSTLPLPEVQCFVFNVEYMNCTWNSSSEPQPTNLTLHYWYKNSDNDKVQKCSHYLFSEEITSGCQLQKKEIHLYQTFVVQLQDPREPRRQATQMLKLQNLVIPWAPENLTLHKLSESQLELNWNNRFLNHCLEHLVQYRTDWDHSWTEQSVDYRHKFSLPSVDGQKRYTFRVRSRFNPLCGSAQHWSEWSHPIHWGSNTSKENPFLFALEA

T2: mouse common cytokine receptor γ-chain (IL-2Rγ) (mouse, UniProt P34902 23-263, limits assumed)
T2 construct: Recombinant mouse IL-2Rγ protein; also called mo IL-2R; mouse IL-2R gamma
T2 sequence (looked up): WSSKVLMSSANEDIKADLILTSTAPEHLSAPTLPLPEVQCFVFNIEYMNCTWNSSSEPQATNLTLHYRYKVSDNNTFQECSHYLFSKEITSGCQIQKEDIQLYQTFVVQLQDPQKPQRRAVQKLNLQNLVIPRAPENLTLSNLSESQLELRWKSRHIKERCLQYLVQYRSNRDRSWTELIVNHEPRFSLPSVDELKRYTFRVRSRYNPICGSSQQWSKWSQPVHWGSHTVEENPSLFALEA

T3: human IL-2Rα (human, UniProt P01589 22-240, limits assumed)
T3 construct: recombinant protein; also called hu IL-2R; human IL-2Ra
T3 sequence: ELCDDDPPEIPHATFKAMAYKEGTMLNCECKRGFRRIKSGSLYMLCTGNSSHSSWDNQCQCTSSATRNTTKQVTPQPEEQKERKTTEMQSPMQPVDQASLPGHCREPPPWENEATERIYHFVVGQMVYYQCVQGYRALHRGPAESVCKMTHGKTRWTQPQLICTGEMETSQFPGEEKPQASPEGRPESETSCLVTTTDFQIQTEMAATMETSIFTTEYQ

B1: FJ1427_P035MP07F01 (VHH)
VHH: QVQLVESGGGLVQAGGSLRLSCAASGRTLSRYAMGWFRQAPGKEREFVTANSWGGDTYYADSVQGRFTFSRDNAKNTVYLQMNSLQPEDTAVYYCAAAPTSFATTAYSSSNSYAYWGQGTQVTVSS
notes: tested as periplasmic extract; also called Clone nr
B2: FJ1427_P035MP07F08 (VHH)
VHH: B1 VHH with Y32D, T49A, N51D, Y58F, Q64E, T77A, A97G, A114R
notes: tested as periplasmic extract; also called Clone nr; 638
B3: FJ1427_P035MP07A01 (VHH)
VHH: B1 VHH with Q1E, G16D
notes: as for B1
B4: FJ1427_P035MP07A06 (VHH)
VHH: B1 VHH with A14P
notes: as for B1
B5: FJ1427_P035MP07A04 (VHH)
VHH: B1 VHH with A40G, T49A, N51D, A60D, Q64E, N73I, A74T, T77A
notes: as for B1
B6: FJ1427_P035MP07B08 (VHH)
VHH: B1 VHH with Q1E, L11S, A14P
notes: tested as periplasmic extract; also called Clone nr; 634
B7: FJ1427_P035MP07E07 (VHH)
VHH: B1 VHH with Q1E, K43S, T49A, N51S, Y58F, Q64E, T77A, V92A, A103P
notes: as for B1
B8: FJ1427_P035MP07B01 (VHH)
VHH: B1 VHH with S70T
notes: as for B1
B9: FJ1427_P035MP07A09 (VHH)
VHH: B1 VHH with T28A, Y32L, T49V, N51S, G55D, Y58F, Q64K, E88G
notes: as for B1
B10: FJ1427_P035MP07B06 (VHH)
VHH: B1 VHH with Q1E
notes: tested as periplasmic extract; also called Clone nr; 618
B11: FJ1427_P035MP07C04 (VHH)
VHH: B1 VHH with L11V
notes: as for B1
B12: FJ1427_P035MP07A05 (VHH)
VHH: B1 VHH with Q1E
notes: as for B1
B13: FJ1427_P035MP07A03 (VHH)
VHH: B1 VHH with Q1E, F47Y, T49A, A50I, N51D, Y58F, Q64E, T77E, A97G, A114R
notes: as for B1
B14: FJ1427_P035MP07A02 (VHH)
VHH: B1 VHH with T28A, Y32L, T49V, N51S, G55D, Y58F, Q64K, E88G, V124A
notes: as for B1
B15: FJ1427_P035MP07H09 (VHH)
VHH: B1 VHH with T49A, A60T, Q64E, T77A, A114T
notes: as for B1
B16: FJ1427_P035MP07F03 (VHH)
VHH: B1 VHH with A14T
notes: as for B1
B17: FJ1427_P035MP07B04 (VHH)
VHH: B1 VHH with Q1E
notes: tested as periplasmic extract; also called Clone nr; 602
B18: FJ1427_P035MP07D04 (VHH)
VHH: B1 VHH with Q1E, A40G, T49A, N51D, A60D, Q64E, N73I, A74T, T77A
notes: as for B1
B19: FJ1427_P035MP07G09 (VHH)
VHH: QVQLQESGGGLVQAGGSLRLSCAASGRTLSRVAMGWFRQAPGKEREFVAADSWGGDTFYADSVEGRFTFSRDNAKNAVYLQMNSLQPEDTAVYFCAGAPASFATTAYSSSNSYSYWGQGTQVTVSS
notes: tested as periplasmic extract; also called Clone nr; 647
B20: FJ1427_P035MP07A10 (VHH)
VHH: B1 VHH with K43S, T49A, N51S, Y58F, Q64E, T77A, V92A, A103P
notes: as for B1
B21: FJ1427_P035MP07B03 (VHH)
VHH: B1 VHH with Q1E, T28A, Y32L, T49V, N51S, G55D, Y58F, Q64K, E88G
notes: as for B1
B22: FJ1427_P035MP07B02 (VHH)
VHH: B1 VHH with Q1E, T28A, Y32L, T49V, N51S, G55D, Y58F, Q64K, E88G
notes: as for B1
B23: FJ1427_P035MP04F12 (VHH)
VHH: QVQLQESGGGWVQVGESLRLSCVPSGRTFVSGIMGWFRQAPGKEREFVARIILNNNSTRYTDSVKGRFTISRDSAKNTMYLQMNTLRPEDTAVYYCAARDRYGSGNSLSPSAYDYWGQGTQVTVSS
notes: as for B1
B24: FJ1427_P035MP07C02 (VHH)
VHH: B23 VHH with Q1E, Q5V, V23A, A40T
notes: tested as periplasmic extract; also called Clone nr; 587
B25: FJ1427_P035MP05E08 (VHH)
VHH: EVQLVESGGGSVQAGGSLRLSCEASGPTLFSSYGMGWFRQAPGKKEREFVGAISRYGTYTSYADPVKDRFTISRDNAKSTVYLQMNNTKPEDTAVYYCAAYTYSGSFYSTVKTHHDEYHYWGQGTQVTVSS
notes: periplasmic extract; also called clone nr
B26: FJ1427_P035MP05D11 (VHH)
VHH: B25 VHH with E1Q, F70L, D75G
notes: as for B25
B27: FJ1427_P035MP05B07 (VHH)
VHH: QLQLVESGGGLVQAGGSLRLSCAASGLTFDGYAIGWFRQASGKEREGVSYINGRDGSTFYADSVKGRFIISSDNAKNTVDLQMNSLKPDDAAVYYCAVDRLGSRGAYVSSWWRSPDMDLWGKGTLVTVSS
notes: as for B25
B28: FJ1427_P035MP05C04 (VHH)
VHH: EVQLVESGGGSVQAGGSLRLSCEASGRTLFSSYGMGWFRQAPGKEREFVGAISRFGTYTSYADPVKDRFTISRDNAKSTVYLQMNNTKPEDTAVYYCAAYTYSGSFYSTVKTHHDEYRYWGQGTQVTVSS
notes: periplasmic extract; also called clone nr; 411
B29: FJ1427_P035MP05E03 (VHH)
VHH: B28 VHH with S11L, E23A, F30Y, G36A, E47D, A51S, F55Y, P64S, H114R, R118Q
notes: as for B25
B30: FJ1427_P035MP05C07 (VHH)
VHH: B28 VHH with E1Q
notes: periplasmic extract; also called 92-MP05C07

target: T1, human common cytokine receptor γ-chain …; experiment: P.E. off-rate SPR
Experimental: (§1) SPR was performed to determine dissociation rates using Biacore 3000 instrument (GE Healthcare). Briefly, human and mouse IL-2R proteins were immobilized on carboxylmethyl dextran sensor chip (CM5) at approximately 2500 RUs using amine coupling in acetate buffer (GE Healthcare). The VHH-containing P.E. were loaded with a flow rate of 30 uL/min and the off-rates were measured over a 120s period.

koff	Binder
0.00297 s⁻¹	B1
0.00185 s⁻¹	B2
0.00151 s⁻¹	B3
0.00273 s⁻¹	B4
0.00126 s⁻¹	B5
0.00326 s⁻¹	B6
0.00225 s⁻¹	B7
0.00235 s⁻¹	B8
0.00161 s⁻¹	B9
0.00322 s⁻¹	B10
0.00267 s⁻¹	B11
0.00323 s⁻¹	B12
0.00174 s⁻¹	B13
0.00176 s⁻¹	B14
0.00346 s⁻¹	B15
0.00321 s⁻¹	B16
0.00277 s⁻¹	B17
0.00243 s⁻¹	B18
0.0024 s⁻¹	B19
0.00242 s⁻¹	B20
0.00278 s⁻¹	B21
0.00232 s⁻¹	B22
0.00714 s⁻¹	B23
0.0186 s⁻¹	B24

target: T2, mouse common cytokine receptor γ-chain …; experiment: P.E. off-rate SPR
Experimental: as §1

koff	Binder
0.0855 s⁻¹	B1
0.109 s⁻¹	B4
0.144 s⁻¹	B6
0.0119 s⁻¹	B9
0.112 s⁻¹	B10
0.127 s⁻¹	B12
0.00795 s⁻¹	B13
0.0116 s⁻¹	B14
0.114 s⁻¹	B17
0.0132 s⁻¹	B21
0.0151 s⁻¹	B22

target: T1, human common cytokine receptor γ-chain …; experiment: P.E. binding ELISA
Experimental: (§2) In a binding ELISA, human or mouse IL-2Rα, IL-2Rβ and IL-2Rγ proteins were coated directly on maxisorp microtiter plates overnight at 4° C. Free binding sites were blocked using 4% Marvel in PBS for 1 hour. Next, 1:5 dilution of P.E. in 1% Marvel/PBS were added to wells and incubated for 1 hour. […] Binding specificity was determined based on O.D. at 450 nm values compared to negative controls.

PE binding ELISA OD	Binder
0.556 OD450 nm	B1
1.24 OD450 nm	B2
0.478 OD450 nm	B3
1.12 OD450 nm	B4
0.507 OD450 nm	B5
0.425 OD450 nm	B6
0.359 OD450 nm	B7
0.518 OD450 nm	B8
0.518 OD450 nm	B9
0.902 OD450 nm	B10
0.406 OD450 nm	B11
0.973 OD450 nm	B12
1.69 OD450 nm	B13
0.829 OD450 nm	B14
1.11 OD450 nm	B15
0.497 OD450 nm	B16
0.97 OD450 nm	B17
0.792 OD450 nm	B18
1.14 OD450 nm	B19
0.759 OD450 nm	B20
1.55 OD450 nm	B21
1.32 OD450 nm	B22
2.02 OD450 nm	B23
0.48 OD450 nm	B24

target: T2, mouse common cytokine receptor γ-chain …; experiment: P.E. binding ELISA
Experimental: as §2

PE binding ELISA OD	Binder
0.047 OD450 nm	B1
0.047 OD450 nm	B4
0.044 OD450 nm	B6
0.055 OD450 nm	B9
0.045 OD450 nm	B10
0.046 OD450 nm	B12
0.869 OD450 nm	B13
0.063 OD450 nm	B14
0.047 OD450 nm	B17
0.058 OD450 nm	B21
0.061 OD450 nm	B22

target: T3, human IL-2Rα; experiment: ELISA, P.E. on coated antigen
Experimental: as §2

OD (PE binding ELISA)	Binder
2.33 OD450 nm	B25
2.54 OD450 nm	B26
1.77 OD450 nm	B27
1.83 OD450 nm	B28
2.48 OD450 nm	B29
1.73 OD450 nm	B30

target: T3, human IL-2Rα; experiment: SPR, P.E. on immobilised antigen
Experimental: as §1

koff	Binder
0.000214 s⁻¹	B25
0.000662 s⁻¹	B26
0.00195 s⁻¹	B27
0.000905 s⁻¹	B28
0.000772 s⁻¹	B29
0.00141 s⁻¹	B30
